Patent publication US20240182571A1 (OSE IMMUNOTHERAPEUTICS, published 2024)

B1: anti PD-1*1 (antibody, human IgG1, kappa, N297A)
chain: DKTHTCPPCPAPELLGGPSVFLFPPKPKDTLMISRTPEVTCVVVDVSHEDPEVKFNWYVDGVEVHNAKTKPREEQYASTYRVVSVLTVLHQDWLNGKEYKCKVSNKALPAPIEKTISKAKGQPREPQVYTLPPCRDELTKNQVSLWCLVKGFYPSDIAVEWESNGQPENNYKTTPPVLDSDGSFFLYSKLTVDKSRWQQGNVFSCSVMHEALHNHYTQKSLSLSPGK
heavy: not shown
light: DVVMTQSPLSLPVTLGQPASISCRSSQSLVHANTNTYLEWYQQRPGQSPRLLIYKVSNRFSGVPDRFSGSGSGTDFTLKISRVEAEDVGVYYCFQGTHVPNTFGQGTKLEIKRTVAAPSVFIFPPSDEQLKSGTASVVCLLNNFYPREAKVQWKVDNALQSGNSQESVTEQDSKDSTYSLSSTLTLSKADYEKHKVYACEVTHQGLSSPVTKSFNRGEC
notes: One-armed control: like construction 3 but without IL-7; Chain A is the Fc chain (knob), chain B the anti PD-1 heavy chain (hole)
B2: anti PD-1*2 (antibody, human IgG4 S228P, kappa, V domains shown)
VH: QIQLVQSGSELKKPGASVKVSCKASGYTFTHYAMNWVRQAPGQGLEWMGWINTNTGEPTYAQGFTGRFVFSLDTSVSTAYLQISSLKAEDTAVYYCAREREPGMDNWGQGTLVTVSS
VL: DVVMTQSPLSLPVTLGQPASISCRSSQSLVHANTNTYLEWYQQRPGQSPRLLIYKVSNRFSGVPDRFSGSGSGTDFTLKISRVEAEDVGVYYCFQGTHVPNTFGQGTKLEIKR
notes: Anti PD-1 antibody with 2 anti PD-1 arms and no cytokine; also called anti PD-1 alone; anti PD-1 control

How the values were obtained:
[1] = biological target: T1, Recombinant hPD1 (Sino Biologicals, reference 10377-H08H) (human, UniProt Q15116 25-167); experiment: ELISA, recombinant human PD-1 immobilised, anti-human Fc peroxidase
T1 construct: Bought reagent, immobilised on plastic; also called Human recombinant PD-1; rPD1
Experimental: (§1) A. PD-1 binding ELISA assay. Human recombinant PD-1 (rPD1) protein was immobilized, and antibodies were added at different concentrations. Revelation was performed with an anti-human Fc antibody coupled to peroxidase. Colorimetry was determined at 450 nm using TMB substrate. […] All constructions tested comprise a […] linker between the Fc and IL-7 domain.
For activity ELISA assay, recombinant hPD1 (Sino Biologicals, Beijing, China; reference 10377-H08H) was immobilized on plastic at 0.5 μg/ml in carbonate buffer (pH9.2) and purified antibody were added to measure binding.

[2] = biological target: T2, biotinylated Human PD1 (AcroBiosystems, reference EP-101) (human, UniProt Q15116 25-167, limits assumed, biotinylated); experiment: competitive ELISA, PD-L1 immobilised, antibody mixed with biotinylated human PD-1; PD1/PDL1 antagonist activity
T2 construct: also called biotinylated recombinant human PD-1; Biotin-PD-1Fc
Experimental: as §1
Purified antibody (at different concentrations) were mixed with 0.66 μg/ml final (fix concentration) of biotinylated Human PD1 (AcroBiosystems; USA; reference EP-101) to measure competitive binding for 2 h at 37° C.

PD-1 expressed on cells [3] = biological target: T3, PD-1 expressed on cells (UniProt Q15116 25-288); experiment: flow cytometry, 1:1 co-culture of U937 PD-1+ and U937 PD-1- cells, detection with anti-human IgG PE, % positive cells
T3 construct: whole, on cells; also called U937 PD-1+ cells; U937 PD-1+ CD127+ cells

PD-1 expressed on cells [4] = biological target: T3, PD-1 expressed on cells; experiment: flow cytometry (FACs analysis), U937 PD-1+ CD127+ cells co-cultured with U937 PD-1- CD127+ cells, detection with anti-human IgG PE, % cell binding
Experimental: (§2) U937 cells expressing CD127+ or co-expressing CD127+ and PD-1+ cells were stained with a cell proliferation dye (CPDe450 or CPDe670) and co-cultivated at ratio 1:1 prior incubation with different concentrations of anti PD-1 IL-7 bifunctional molecules. Staining with and anti-human IgG PE and pSTAT5 activation was quantified after incubation by flow cytometry. A. EC50 binding (nM) was calculated for each cell type and each construction. B. EC50 pSTAT5 (nM) was calculated for each cell type and each construction.
(§3) Finally, the specific cis-targeting and cis-activity of the different anti PD-1 IL-7 constructions were analyzed in a co-culture assay. U937 PD-1+ CD127+ cells were mixed with PD-1− CD127+ cells (ratio 1:1), then incubated with the different constructions at escalating doses. The binding and the IL-7R signaling (pSTAT5) was quantified by flow cytometry. EC50 (nM) of the binding and the pSTAT5 activation was determined for each construction and for each PD-1+ and PD-1− cell population (FIG. 4A and B).
(§4) U937 transduced with CD127 and PD-1 were mixed with U937 transduced with CD127+ only.

PD-1 expressed on cells [5] = biological target: T3, PD-1 expressed on cells; experiment: flow cytometry, 1:1 co-culture of U937 PD-1+ and U937 PD-1- cells, detection with anti-human IgG PE, % positive cells [middle panel]
PD-1 expressed on cells [6] = biological target: T3, PD-1 expressed on cells; experiment: flow cytometry (FACs analysis), U937 PD-1+ CD127+ cells co-cultured with U937 PD-1- CD127+ cells, detection with anti-human IgG PE, % cell binding; remark: listed apart in the source
Experimental: as §2, §3, §4

T3 sequence (Q15116 25-288): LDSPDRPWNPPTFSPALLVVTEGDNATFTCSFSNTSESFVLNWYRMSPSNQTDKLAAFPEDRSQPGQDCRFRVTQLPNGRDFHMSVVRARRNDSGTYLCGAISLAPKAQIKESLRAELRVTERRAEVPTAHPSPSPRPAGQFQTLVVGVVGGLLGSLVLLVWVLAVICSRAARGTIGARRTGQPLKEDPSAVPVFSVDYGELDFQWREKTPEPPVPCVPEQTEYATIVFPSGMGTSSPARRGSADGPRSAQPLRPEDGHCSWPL
T1 sequence (Q15116 25-167 limits assumed): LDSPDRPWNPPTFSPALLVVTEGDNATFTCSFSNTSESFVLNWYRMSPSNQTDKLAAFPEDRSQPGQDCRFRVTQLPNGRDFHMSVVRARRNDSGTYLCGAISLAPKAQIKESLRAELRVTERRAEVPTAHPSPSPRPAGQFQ
T2 sequence (Q15116 25-167 limits assumed): as above

EC50 [1] | EC50 [2] | EC50 (read off the curve) (PD-1 expressed on cells [3]) | EC50 (read off the curve) (PD-1 expressed on cells [4]) | EC50 (read off the curve) (PD-1 expressed on cells [5]) | EC50 (read off the curve) (PD-1 expressed on cells [6]) | Binder
0.238 nM | 5.01 nM | ~0.02 nM | – | – | – | B1
0.021 nM | – | – | ~0.02 nM | ~0.005 nM | ~0.02 nM | B2
